From article PMC10439028, “SGLT5 is the renal transporter for 1,5-anhydroglucitol, a major player in two rare forms of neutropenia” (Cellular and Molecular Life Sciences: CMLS, 2023)

Assays:
[1] = substrate: OC[C@H]1OC[C@H](O)[C@@H](O)[C@@H]1O; assay: Radioactive uptake assay (saturation kinetics) in HEK293T cells stably overexpressing human SGLT5-iso2; type: cell-based; conditions: pH 7.4, 37.0 °C
Excerpt: (§1) This assay was used to study (1) the transport of 1,5-AG or mannose by the HEK293T model cell lines that stably overexpressed the various transporters or by the transiently transfected HEK293T cells using JetPEI® as a transfection agent prepared as described above and (2) the substrate specificity of each transporter.
(§2) For a typical transporter experiment we proceeded as follows. […] To minimize cell loss during the various washing steps in the radioactive uptake experiments, the wells where the cells were seeded were previously coated with poly- D-lysine, which improved their adhesion to the plastic surface of the wells. For this, each well of the 24-well plates was treated with 200 µl of a 0.01% poly-L-lysine solution for 10 min, washed 3 times with 1 ml of sterilized water and left to dry for 2 h. Only then could the 24-well plates be seeded with the appropriate cell lines and cultured overnight at 37 °C in 5% CO2.
(§3) On day two, the radioactive uptake assay could be performed. The cell culture media was removed by aspiration and cells were incubated for 20 min at 37 °C and 5% CO2 with a basal medium (10 mM HEPES, pH 7.4, 1 mM CaCl2, 1 mM MgCl2, 2 mM KCl) containing 140 mM choline chloride to deplete intracellular […] ions. This was subsequently replaced with the uptake medium (basal medium + 140 mM NaCl, 25 μM cytochalasin B, 1 mg/ml BSA) containing either radioactive U-[^14C]-mannose (15,000 cpm/well) or 2-[^3H]-1,5-AG (30,000 cpm/well) and respectively, non-radioactive mannose or 1,5-AG, at the required concentration in the experiment. […]
(§4) Once the uptake medium was added to the cells, the plates were incubated at 37 °C in 5% CO2 during the required time. […] In each experiment, the transport activities were calculated after subtracting a “blank” value, corresponding to the radioactivity in the appropriate control cells (HEK293T cells that were stably or transiently transfected with one of the parent plasmids pEF6/MycHisA, pEF6HisB, pUB82 or pUB83 with no inserted cDNA) that were analyzed in parallel.

[2] = substrate: OC[C@H]1OC(O)[C@@H](O)[C@@H](O)[C@@H]1O; assay: as above; type: cell-based; conditions: other: transport of the labelled substrate, Michaelis-Menten fit, Fig. 2B; pH 7.4; 37.0 °C
Excerpt: as §1, §2, §3, §4

[3] = substrate: OC[C@H]1OC[C@H](O)[C@@H](O)[C@@H]1O; assay: 1,5-AG uptake in HEK293T cells overexpressing SGLT5 variant Asn96Ile; type: cell-based, human; conditions: other: variant Asn96Ile (rs148178887); pH 7.4; 37.0 °C
Description: as §2
(§5) On day two, the radioactive uptake assay could be performed. The cell culture media was removed by aspiration and cells were incubated for 20 min at 37 °C and 5% CO2 with a basal medium (10 mM HEPES, pH 7.4, 1 mM CaCl2, 1 mM MgCl2, 2 mM KCl) containing 140 mM choline chloride to deplete intracellular Na^2+ ions. […]
(§6) Once the uptake medium was added to the cells, the plates were incubated at 37 °C in 5% CO2 during the required time. […] In each experiment, the transport activities were calculated after subtracting a “blank” value, corresponding to the radioactivity in the appropriate control cells (HEK293T cells that were stably or transiently transfected with one of the parent plasmids pEF6/MycHisA, pEF6HisB, pUB82 or pUB83 with no inserted cDNA) that were analyzed in parallel. […]

[4] = substrate: OC[C@H]1OC[C@H](O)[C@@H](O)[C@@H]1O; assay: 1,5-AG uptake in HEK293T cells overexpressing SGLT5 variant Arg401His; type: cell-based, human; conditions: other: variant Arg401His (rs754390288); pH 7.4; 37.0 °C
Description: as §2, §5, §6

[5] = substrate: OC[C@H]1OC(O)[C@@H](O)[C@@H](O)[C@@H]1O; assay: Radioactive uptake assay (saturation kinetics) in HEK293T cells expressing mouse SGLT4; type: cell-based; conditions: other: 30 min, Supplementary Fig. 4; pH 7.4; 37.0 °C
Description: as §2
On day two, the radioactive uptake assay could be performed. […]
as §6
Supplementary Fig. 4: Transport activities for 1,5-anhydroglucitol and mannose of recombinant mouse SGLT4 and SGLT5 isoforms measured in HEK293T cells. […]

[6] = substrate: OC[C@H]1OC(O)[C@@H](O)[C@@H](O)[C@@H]1O; assay: Radioactive uptake assay (saturation kinetics) in HEK293T cells stably overexpressing human SGLT4; type: cell-based; conditions: other: transport of the labelled substrate, Fig. 2B; pH 7.4; 37.0 °C
Excerpt: as §1
as §2, with “CO2. […]” for “CO2.”
as §4

B1: human SGLT5 (Homo sapiens) (protein)
chain: MAANSTSDLHTPGTQLSVADIIVITVYFALNVAVGIWSSCRASRNTVNGYFLAGRDMTWWPIGASLFASSEGSGLFIGLAGSGAAGGLAVAGFEWNATYVLLALAWVFVPIYISSEIVTLPEYIQKRYGGQRIRMYLSVLSLLLSVFTKISLDLYAGALFVHICLGWNFYLSTILTLGITALYTIAGGLAAVIYTDALQTLIMVVGAVILTIKAFDQIGGYGQLEAAYAQAIPSRTIANTTCHLPRTDAMHMFRDPHTGDLPWTGMTFGLTIMATWYWCTDQVIVQRSLSARDLNHAKAGSILASYLKMLPMGLIIMPGMISRALFPDDVGCVVPSECLRACGAEVGCSNIAYPKLVMELMPIGLRGLMIAVMLAALMSSLTSIFNSSSTLFTMDIWRRLRPRSGERELLLVGRLVIVALIGVSVAWIPVLQDSNSGQLFIYMQSVTSSLAPPVTAVFVLGVFWRRANEQGAFWGLIAGLVVGATRLVLEFLNPAPPCGEPDTRPAVLGSIHYLHFAVALFALSGAVVVAGSLLTPPPQSVQIENLTWWTLAQDVPLGTKAGDGQTPQKHAFWARVCGFNAILLMCVNIFFYAYFA
notes: expressed in transfected cells
Km ([1]; other: hSGLT5 WT, Table 1 experiments): 226 ± 7 µM
Km ([1]; other: transport of the labelled substrate, Michaelis-Menten fit, Fig. 2B): 167 µM
Km [2]: 1729 ± 568 µM

B2: hSGLT5 Asn96Ile (Homo sapiens; N96I) (protein)
chain: MAANSTSDLHTPGTQLSVADIIVITVYFALNVAVGIWSSCRASRNTVNGYFLAGRDMTWWPIGASLFASSEGSGLFIGLAGSGAAGGLAVAGFEWIATYVLLALAWVFVPIYISSEIVTLPEYIQKRYGGQRIRMYLSVLSLLLSVFTKISLDLYAGALFVHICLGWNFYLSTILTLGITALYTIAGGLAAVIYTDALQTLIMVVGAVILTIKAFDQIGGYGQLEAAYAQAIPSRTIANTTCHLPRTDAMHMFRDPHTGDLPWTGMTFGLTIMATWYWCTDQVIVQRSLSARDLNHAKAGSILASYLKMLPMGLIIMPGMISRALFPDDVGCVVPSECLRACGAEVGCSNIAYPKLVMELMPIGLRGLMIAVMLAALMSSLTSIFNSSSTLFTMDIWRRLRPRSGERELLLVGRLVIVALIGVSVAWIPVLQDSNSGQLFIYMQSVTSSLAPPVTAVFVLGVFWRRANEQGAFWGLIAGLVVGATRLVLEFLNPAPPCGEPDTRPAVLGSIHYLHFAVALFALSGAVVVAGSLLTPPPQSVQIENLTWWTLAQDVPLGTKAGDGQTPQKHAFWARVCGFNAILLMCVNIFFYAYFA
notes: pUB83-hSGLT5-iso2 as well as the various SGLT5 mutants obtained were used to transduce HEK293T cells; expressed in transfected cells; host or cells: HEK293T, lentiviral transduction (pUB83)
Km [3]: 1565 ± 302 µM

B3: hSGLT5 Arg401His (Homo sapiens; R401H) (protein)
chain: MAANSTSDLHTPGTQLSVADIIVITVYFALNVAVGIWSSCRASRNTVNGYFLAGRDMTWWPIGASLFASSEGSGLFIGLAGSGAAGGLAVAGFEWNATYVLLALAWVFVPIYISSEIVTLPEYIQKRYGGQRIRMYLSVLSLLLSVFTKISLDLYAGALFVHICLGWNFYLSTILTLGITALYTIAGGLAAVIYTDALQTLIMVVGAVILTIKAFDQIGGYGQLEAAYAQAIPSRTIANTTCHLPRTDAMHMFRDPHTGDLPWTGMTFGLTIMATWYWCTDQVIVQRSLSARDLNHAKAGSILASYLKMLPMGLIIMPGMISRALFPDDVGCVVPSECLRACGAEVGCSNIAYPKLVMELMPIGLRGLMIAVMLAALMSSLTSIFNSSSTLFTMDIWRRLHPRSGERELLLVGRLVIVALIGVSVAWIPVLQDSNSGQLFIYMQSVTSSLAPPVTAVFVLGVFWRRANEQGAFWGLIAGLVVGATRLVLEFLNPAPPCGEPDTRPAVLGSIHYLHFAVALFALSGAVVVAGSLLTPPPQSVQIENLTWWTLAQDVPLGTKAGDGQTPQKHAFWARVCGFNAILLMCVNIFFYAYFA
notes: as for B2
Km [4]: 331 ± 13 µM

B4: mouse SGLT4 (Mus musculus) (protein)
chain: MNTELVAMEPGVSRNGVRTETTTNPSLGLHTYDIVVVVIYFVFVLAVGIWSSIRASRGTVGGYFLAGRSMTWWPIGASLMSSNVGSGLFIGLAGTGAAGGLAVGGFEWNATFLLLALGWIFVPVYIAAGVVTMPQYLKKRFGGQRIQVYMSVLSLILYIFTKISTDIFSGALFIQMALGWNLYLSTVILLVVTAVYTIAGGLTAVIYTDALQTVIMVGGALVLMFLGFQEVGWYPGLQQLYRQAIPNTTVPNTTCHLPRPDAFHMLRDPVNGDIPWPGLIFGLTVLATWCWCTDQVIVQRSLAAKNLSHAKGGSVLGGYLKILPMFFIVMPGMISRALYPDEVACVDPDICQRVCGARVGCSNIAYPKLVMALMPVGLRGLMIAVIMAALMSSLTSIFNSSSTLFAIDVWQRFRRQASEQELMVVGRLFVVFLVVISILWIPIIQSSNSGQLFDYIQSITSYLAPPITALFLLAIFCKRVNEPGAFWGLMFGLVVGILRMILEFSYSAPACGEMDRRPAVLKDFHYLYFALLLCGLTAIIIVVISFFTEPIPDDKLARLTWWTRNCAVSDLQKKTSVSVNNTEDDNSPGLAGRPVVEGPAGDEEEANTTQGPEQPGALHRSWGKWLWNWFCGLSGAPQQALSPAEKAVLEQKLTSIEEEPLWRRVCNINAIILLAINIFLWGYFA
notes: expressed in transfected cells; host or cells: HEK293T
Km [5]: 200 µM

B5: human SGLT4 (Homo sapiens) (protein)
chain: MSKELAAMGPGASGDGVRTETAPHIALDSRVGLHAYDISVVVIYFVFVIAVGIWSSIRASRGTIGGYFLAGRSMSWWPIGASLMSSNVGSGLFIGLAGTGAAGGLAVGGFEWNATWLLLALGWVFVPVYIAAGVVTMPQYLKKRFGGQRIQVYMSVLSLILYIFTKISTDIFSGALFIQMALGWNLYLSTGILLVVTAVYTIAGGLMAVIYTDALQTVIMVGGALVLMFLGFQDVGWYPGLEQRYRQAIPNVTVPNTTCHLPRPDAFHILRDPVSGDIPWPGLIFGLTVLATWCWCTDQVIVQRSLSAKSLSHAKGGSVLGGYLKILPMFFIVMPGMISRALFPDEVGCVDPDVCQRICGARVGCSNIAYPKLVMALMPVGLRGLMIAVIMAALMSSLTSIFNSSSTLFTIDVWQRFRRKSTEQELMVVGRVFVVFLVVISILWIPIIQSSNSGQLFDYIQAVTSYLAPPITALFLLAIFCKRVTEPGAFWGLVFGLGVGLLRMILEFSYPAPACGEVDRRPAVLKDFHYLYFAILLCGLTAIVIVIVSLCTTPIPEEQLTRLTWWTRNCPLSELEKEAHESTPEISERPAGECPAGGGAAENSSLGQEQPEAPSRSWGKLLWSWFCGLSGTPEQALSPAEKAALEQKLTSIEEEPLWRHVCNINAVLLLAINIFLWGYFA
notes: as for B1
Km [6]: 81 ± 8 µM
